Measurements as given in FireProtDB (doi:10.1016/0022-2836(74)90188-0).

Settings: Aspergillus oryzae (strain ATCC 42149 / RIB 40); pH 4.7; 38 °C; GdnHCl; DSC; glycine 0.04 M; reversible: yes(>90%); whole UniProt chain shown

B1: Guanyl-specific ribonuclease T1 wild type, P00651 (protein)
chain: MMYSKLLTLTTLLLPTALALPSLVERACDYTCGSNCYSSSDVSTAQAAGYQLHEDGETVGSNSYPHKYNNYEGFDFSVSSPYYEWPILSSGDVYSGGSPGADRVVFNENNQLAGVITHTGASGNNFVECT
- unfolding free energy: 6.6 kcal/mol
